# Laboratory results published in PMC3439879.
# Where two headings read alike, the source gives them in different places.
# Columns and labels:
# [1] = biological target: Hfq (HfqEc) (Escherichia coli) (UniProt P0A6X3); experiment: SHAPE footprinting
# [2] = biological target: Hfq (HfqEc) (Escherichia coli) (UniProt P0A6X3); experiment: EMSA
# [3] = tested on: HfqCp (Clostridium perfringens); experiment: EMSA; conditions: 50 mM Tris-HCl pH 7.5, 100 mM KCl, 10 mM MgCl2, room temperature; […]
# Hfq (HfqEc) (Escherichia coli), sequence (P0A6X3 whole entry): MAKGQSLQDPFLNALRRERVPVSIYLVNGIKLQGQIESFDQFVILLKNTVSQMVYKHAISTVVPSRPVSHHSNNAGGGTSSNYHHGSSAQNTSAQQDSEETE
substance,measurement,setting,value
GGCCUUCGGGCCAAUUCUGGCCGGCUAACCCGGUCACAUGGGAUGAGGAGAUAACAUAAUCUCCCUCCCACAAGCAGUAACUAUAAAAAUAACCCCACUCUCUACAAGGCUCGGGGCGCCCGAAAAAACGGGCAUACAGGUUGACCGACAACGAUAUAAAUCGGAAUCAAAAACUAUGUGUGGAAUUGUUGGCGCGUCGAUCCGGUUCGCCGGAUCCAAAUCGGGCUUCGGUCCGGUUCAAUAUUGGAUCCGCUCGG [glmS mRNA SHAPE construct],binding,[1],binds
GGUUCUGGCCGGCUAACCCGGUCACAUGGGAUGAGGAGAUAACAUAAUCUCCCUCCCACAAGCAGUAACUAUAAAAAUAACCCCACUCUCUACAAGGCUCGGGGCGCCCGAAAAAACGGGCAUACAGGUUGACCGACAACGAUAUAAAUCGGAAUCAAAAACUAUGUGUGGAAUUGUUGGCGCGAAUAUUAAGCUUGCUCGG [glmS mRNA -161 to +21],Kd,[2],0.03 µM
GlmY,Kd,[2],0.0043 µM
GlmZ,Kd,[3],0.012 µM
same,Kd,"[2]; 50 mM Tris-HCl pH 7.5, 100 mM KCl, 10 mM MgCl2, room temperature, […]",0.0045 µM
glmS mRNA -161 to +21,Kd,[2],0.03 µM
